The values below come from the DeepSol protein solubility set.

This data set in a line: soluble on expression in E. coli; label from the status in PepcDB or PDB records.
In the case of “MGSDKIHHHHHHMTSARRMLIDANTTPFYHVINRCVRRAFLCGEDKLTGRSYEHRRGWIVDKIKALSAIFCIDICAYAVMSNHYHLVLKIDVEKAKSLTQKDIISRWCQITKGHAIATKYMNGDALIEGERMLLDALIAEWHERLSSISWFMRCLNEEIARKANREDECKGAFWEGRFKSQALLDEQALLACMMYVDLNPIRAGIADSLQSSDFTSIQERMNSLNTHSIAPKLAKITVDNTLSIPHKSLAKFEGATHIHQQTGIPFHFADYLELIDWTGRAIRHDKKGFIDNLRPKLLNELGIASDAWLLSAKEFRRQYSGVSGRWDAMCAFKHKQGGKWCRGKSHSQALHPEQINGLTLR”, the “soluble on expression in E. coli” value is “not soluble”.
For “MTRHLAGSFASPPGAEAEGGPVRVTALRAQAFHIPTDLPEADGTFAWNATTLVLVEVEAGGQTGIGYTYSDASIVRLIHHTLAACVIDADAWQVGALWLRMQRQVRNPGRAGLAATAISAVDCALWDLKAKLLGVPLVTLLGAQRANVPIYGSGGFTTYTDEQLREQLVRWVAQDGCRWVKMKIGTHPQEDPQRVAAARAAIGDAGLFVDANGAFSVKEALHYARAFAEQGVEWFEEPVSSDDLRGLALLRERAPARMEIAAGEYAYTLDDFRLLLEAHAVDVLQADVSRCGGVTGFLQAAALCEAFHVPLSAHCAPALHLHVASAVRNLRHQEWFHDHVRIEAMLFDGAPRPSNGAIAPDMARPGCGLAFRHGDAQRYLIH”, the “soluble on expression in E. coli” value is listed as “soluble”.
In the case of “MSLSTIGSMMSIYSEAGDFGNIFVTGRIAFSLKYEQQTQSLVVHVKECHQLAYADEAKKRSNPYVKTYLLPDKSRQGKRKTSIKRDTVNPLYDETLRYEIPESLLAQRTLQFSVWHHGRFGRNTFLGEAEIQMDSWKLDKKLDHCLPLHGKISAESPTGLPSHKGELVVSLKYIPASKTPVGGDRKKSKGGEGGELQVWIKEAKNLTAAKAGGTSDSFVKGYLLPMRNKASKRKTPVMKKTLNPHYNHTFVYNGVRLEDLQHMCLELTVWDREPLASNDFLGGVRLGVGTGISNGEVVDWMDSTGEEVSLWQKMRQYEGHHHHHH”, the “soluble on expression in E. coli” value was “not soluble”.
The same measure for “MSQANLSETLFKPRFKHPETSTLVRRFSAGKPQAMQSALSGNHVDHWYRLINRLMWIWRGVTPQEILDVQARIVMSEAERTDPELFDTVIGYRGGNWIFEWAKEAMQWQQKAGQEADPLLSGRHWLHASNLYSIAAYPHIKGDELAEQAQALANRAYEEAAQRLPGSLRELEFTIPGGSPITGFLHMPKGEGPFPTVLMCGGLDSLQTDYYNLYENYFSPLGIAMLTIDMPSIGFSSKWTLNQDTSLLHQHALRHLENVPWIDHTRVAAFGFRFGANIAVRLGYLEPQRLKAVACLGPVVHGLLVDPLHQGRVPEMYLDVLASRLGMHDASDEALRVELNRYSLKTQGLLGRRCPTPMLSGFWKDDPFSPEEESRLITSSSADGKLLEIPFNPVYRNFDHALRQIARWINHRFG”: “not soluble”; for “SNAMLFDEKEILAITRWAKLYANQSPDRILLGSNDIPPEYRAAVATQIELWPRLRNKLPQWAGISSLYIPSRLSLEQSSGAVTSSYKSRFIREGTKVVDLTGGLGIDFIALMSKASQGIYIERNDETAVAARHNIPLLLNEGKDVNILTGDFKEYLPLIKTFHPDYIYVDPARRSGADKRVYAIADCEPDLIPLATELLPFCSSILAKLSPMIDLWDTLQSLLHVQELHVVAAHGEVKELLVRMSLNEATIPPEKVPIHAINLLLEDTVIPFIFTMEEERSISIPYTDSIDKYVYEPHTALLKAGAFKTVAYRLGLRKLHPNSHLYTSEAYESAFPGRTFVLEEIIPFSTSVLKQLRKVVPQASISCRNFPLSPIELRQRSKMADGGEKTLMGTTMADGKKVLLLLRKAE”: “soluble”.
For “MAHHHHHHMQFGIKVEPYGYDKLVWLETDALKVGLTNYAASVASIQVYHPADNKWIEVNCGYPKNPEEAYADPDYMGATVGRCAGRVAGGVFTLDGVKYYTQKNRGENTCHCGDDAYHKKHWGMKLIETANVIGVRFNYTSPHMESGFPGEVKNYCTFTIDRSKPNALKTIYDSYITDNSPCDASPINVFSHTSFNLNGIPGQQDGEKNWVQPESVRNHWLRVPASRVAEADRMAIPTGEFLSVEGTGLDFRQGRVIGDCIDDVALLDRDPCGYDHPLAIDGWEKGKLMLHAEAKSPVTNICMKVYSTFPCMWVYTANNKPLPASGGPGQRYARWTGLLVGPQNFSDVANHYPKYPSCIVRRGERQYSETTINEFTIEQ”, the “soluble on expression in E. coli” value was “soluble”.
Consider “MLTGLKIAVIGGDARQLEIIRKLTEQQADIYLVGFDQLDHGFTGAVKCNIDEIPFQQIDSIILPVSATTGEGVVSTVFSNEEVVLKQDHLDRTPAHCVIFSGISNAYLENIAAQAKRKLVKLFERDDIAIYNSIPTVEGTIMLAIQHTDYTIHGSQVAVLGLGRTGMTIARTFAALGANVKVGARSSAHLARITEMGLVPFHTDELKEHVKDIDICINTIPSMILNQTVLSSMTPKTLILDLASRPGGTDFKYAEKQGIKALLAPGLPGIVAPKTAGQILANVLSKLLAEIQAEEGK”, for which the “soluble on expression in E. coli” value was “soluble”.
The same measure for “MASNEKTRYKAIIADHTYTIIGQESKQHMDLVTKIVNEQLAEIKHLSPQTDTEQASVLLAINAISDQLKKQEYALKLEKQVADLKQKTIRLAELENRVRRMEIIEEEARDVLKKNGQEDVEIHNHVEAQQILNENRKQQIQNKGVSE”: “not soluble”.
On to “MGSDKIHHHHHHMEVKELERDKNRVVLEYVFGAEEIAQAEDKAVRYLNQRVEIPGFRKGRIPKNVLKMKLGEEFQEYTLDFLMDLIPDTLKDRKLILSPIVTERELKDVTARVVVEVHEEPEVRIGDISKIEVEKVDEEKVLEKYVERRIEDLRESHALLEPKEGPAEAGDLVRVNMEVYNEEGKKLTSREYEYVISEDEDRPFVKDLVGKKKGDVVEIEREYEGKKYTYKLEVEEVYKRTLPEIGDELAKSVNNEFETLEQLKESLKKEGKEIYDVEMKESMREQLLEKLPEIVEIEISDRTLEILVNEAINRLKREGRYEQIVSSYESEEKFREELKERILDDIKRDRVIEVLAQEKGISVNDEELEKEAEELAPFWGISPDRAKSLVKARQDLREELRWAILKRKVLDLLLQEVKVKVVEPKGEGDDSEGKEDN”, for which the “soluble on expression in E. coli” value was “not soluble”.
The same measure for “KYHHLTLTQRAGSAVPTSNKVLDVKGQYLESGLSAPLIAEMRKHLKAGNQVMLFLNRRGFSPALMCHECGWIAECKRCDAYYTFHQYSNEIRCHHCGSQQPVIHQCQGC”: “not soluble”.
With “REIADNTYIVLGTMTLNDFNEYFETDLESDNVDTIAGFYLTGVGTIPSQEEKEHFEVESNGKHLELINDKVKDGRVTKLKILVSEVEEKEDEKD”, the “soluble on expression in E. coli” value was “not soluble”.
The same measure for “EVRALQLEYDQSMEAYQKLVEISPDAIYIQSMEGEILFANPSGIKLLGATDLNELVGLSVMNFIHPDYLNVVENRIGDAENLSGNISEQKAVTLKGEILDIEVVSVAFSYNGKAAEQVIVRNVT”: “not soluble”.
Then “MKHLFTRIFLFHLLLIGTVQVTAQNKKSGNPILPGFHADPEVLYSHQTKRYYIYPTSDGFPGWGGSYFKVFSSKNLKTWKEETVILEMGKNVSWANGNAWAPCIEEKKIDGKYKYFFYYSANPTTNKGKQIGVAVADSPTGPFTDLGKPIITSSPTGRGQQIDVDVFTDPVSGKSYLYWGNGYMAGAELNDDMLSIKEETTVVLTPKGGTLQTYAYREAPYVIYRKGIYYFFWSVDDTGSPNYHVVYGTAQSPLGPIEVAKEPIVLIQNPKEEIYGPAHNSILQVPGKDKWYIVYHRINKNHLNDGPGWHREVCIDRMEFNPDGTIKQVIPTP”, with “not soluble”; and “MHTSILLLTALCAGAYAQFSANGQAAILNVHNTLRSRIAKGTYVAKGTAKPAASDMLKMKWDATVAASAQAYANKCPTGHSGAAGLGENLYWYWTSATITNIDQFGATGSAAWEKEFQDYGWSSNTLSMSLFNTGIGHATQMAWAKTNLIGCGVKNCGKDTNGFNKVTVVCQYKPQGNYLNQNIYTSGTTCSKCPSGTSCEAATGLCA”, with “not soluble”.
